Measurements from paper PMC7250496 (Journal of medicinal chemistry, 2020).
Square brackets hold non-standard residues; d marks the D form. Dap = NC[C@H](N)C(=O)O

Assays:
[1] = biological target: T1, mouse melanocortin 1 receptor (mouse, UniProt Q01727 1-315); assay: cell-based or functional assay
[2] = biological target: T2, mouse melanocortin 3 receptor (mouse, UniProt P33033 1-323); assay: cell-based or functional assay
[3] = biological target: T3, mouse melanocortin 4 receptor (mouse, UniProt P56450 1-332); assay: cell-based or functional assay
[4] = biological target: T4, mouse melanocortin 5 receptor (mouse, UniProt P41149 1-325); assay: cell-based or functional assay
[5] = biological target: T1, mouse melanocortin 1 receptor; assay: radioligand binding
[6] = biological target: T2, mouse melanocortin 3 receptor; assay: radioligand binding
[7] = biological target: T3, mouse melanocortin 4 receptor; assay: radioligand binding
[8] = biological target: T4, mouse melanocortin 5 receptor; assay: radioligand binding
[9] = biological target: human melanocortin 4 receptor (human, UniProt P32245 1-332); assay: radioligand binding
Sequence of human melanocortin 4 receptor (P32245 whole entry): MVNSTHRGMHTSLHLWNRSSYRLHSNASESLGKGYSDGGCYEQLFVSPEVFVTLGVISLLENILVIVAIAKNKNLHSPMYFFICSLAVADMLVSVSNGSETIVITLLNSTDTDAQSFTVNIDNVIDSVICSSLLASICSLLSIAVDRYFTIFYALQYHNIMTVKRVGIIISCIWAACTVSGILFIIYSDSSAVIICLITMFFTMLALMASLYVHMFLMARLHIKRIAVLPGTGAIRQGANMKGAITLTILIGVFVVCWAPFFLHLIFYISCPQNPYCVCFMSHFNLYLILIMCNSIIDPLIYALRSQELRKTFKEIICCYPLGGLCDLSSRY

T2 sequence (P33033 whole entry): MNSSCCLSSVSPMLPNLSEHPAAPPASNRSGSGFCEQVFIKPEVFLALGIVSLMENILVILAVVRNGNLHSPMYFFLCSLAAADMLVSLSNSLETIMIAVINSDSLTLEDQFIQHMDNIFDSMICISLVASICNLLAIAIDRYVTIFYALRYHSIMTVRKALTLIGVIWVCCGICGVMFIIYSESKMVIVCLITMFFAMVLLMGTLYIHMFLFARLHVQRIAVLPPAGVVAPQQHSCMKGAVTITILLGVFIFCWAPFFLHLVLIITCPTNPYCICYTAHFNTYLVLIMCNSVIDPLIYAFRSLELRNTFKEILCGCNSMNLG
T3 sequence (P56450 whole entry): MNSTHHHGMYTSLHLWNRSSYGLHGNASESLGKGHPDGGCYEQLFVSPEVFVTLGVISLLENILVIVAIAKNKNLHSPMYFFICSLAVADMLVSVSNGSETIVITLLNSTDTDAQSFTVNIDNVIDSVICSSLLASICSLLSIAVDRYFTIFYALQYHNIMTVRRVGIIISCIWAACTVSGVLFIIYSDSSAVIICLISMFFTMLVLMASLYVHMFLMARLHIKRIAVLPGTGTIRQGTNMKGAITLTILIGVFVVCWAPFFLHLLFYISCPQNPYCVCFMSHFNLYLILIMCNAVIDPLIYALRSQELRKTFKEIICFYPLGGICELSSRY
T4 sequence (P41149 whole entry): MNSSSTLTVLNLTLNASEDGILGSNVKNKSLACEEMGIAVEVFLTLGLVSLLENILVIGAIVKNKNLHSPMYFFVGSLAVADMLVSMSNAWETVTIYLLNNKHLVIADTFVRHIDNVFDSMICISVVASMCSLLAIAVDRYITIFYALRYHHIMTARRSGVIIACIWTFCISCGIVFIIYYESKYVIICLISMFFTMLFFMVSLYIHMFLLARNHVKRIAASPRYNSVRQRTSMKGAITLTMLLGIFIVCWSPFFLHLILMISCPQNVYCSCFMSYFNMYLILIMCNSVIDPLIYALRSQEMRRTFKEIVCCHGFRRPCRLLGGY
T1 sequence (Q01727 whole entry): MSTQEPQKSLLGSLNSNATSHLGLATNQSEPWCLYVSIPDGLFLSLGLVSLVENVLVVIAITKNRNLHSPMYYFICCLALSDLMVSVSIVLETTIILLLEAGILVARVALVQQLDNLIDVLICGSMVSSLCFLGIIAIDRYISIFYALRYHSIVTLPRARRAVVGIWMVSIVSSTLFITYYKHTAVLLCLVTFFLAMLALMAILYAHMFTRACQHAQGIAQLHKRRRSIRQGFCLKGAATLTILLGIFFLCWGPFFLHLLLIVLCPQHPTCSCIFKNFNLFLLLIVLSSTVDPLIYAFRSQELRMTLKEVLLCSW

| Binder | agonist activity, cAMP AlphaScreen, HEK293 cells stably expressing the receptor [1] | agonist activity, cAMP AlphaScreen, HEK293 cells stably expressing the receptor [2] | agonist activity, cAMP AlphaScreen, HEK293 cells stably expressing the receptor [3] | agonist activity, cAMP AlphaScreen, HEK293 cells stably expressing the receptor [4] [µM] | IC50 [5] [µM] | IC50 [6] [µM] | IC50 [7] [µM] | IC50 [8] [µM] | IC50 [9] [µM] |
| --- | --- | --- | --- | --- | --- | --- | --- | --- | --- |
| cyclo(PCFF[Dap]AF[dP]) [c[Pro-Cys-Phe-Phe-Dap-Ala-Phe-DPro]] | 4 µM | 29 % of maximal NDP-MSH response at 100 μM | 42 % of maximal NDP-MSH response at 100 μM | > 100 | 33 | 49 | 10 | > 100 | 15.7 |
| cyclo(PRFFNAF[dP]) [c[Pro-Arg-Phe-Phe-Asn-Ala-Phe-DPro]] | – | – | – | – | 9 | – | – | – | – |
| cyclo(PRYFNAF[dP]) [c[Pro-Arg-Tyr-Phe-Asn-Ala-Phe-DPro]] | > 100 µM | > 100 µM | > 100 µM | – | > 100 | > 100 | 2 | > 100 | 14.3 |
| cyclo(PRFFNVF[dP]) [c[Pro-Arg-Phe-Phe-Asn-Val-Phe-DPro]] | 23 % of maximal NDP-MSH response at 100 μM | > 100 µM | 16 % of maximal NDP-MSH response at 100 μM | > 100 | 15 | 53 | 0.038 | 29 | 0.25 |
| cyclo(PCFFNAF[dP]) [c[Pro-Cys-Phe-Phe-Asn-Ala-Phe-DPro]] | 46 % of maximal NDP-MSH response at 100 μM | > 100 µM | > 100 µM | – | 24.6 | > 100 | 1.9 | > 100 | 19.3 |
| cyclo(PHFFNAF[dP]) [c[Pro-His-Phe-Phe-Asn-Ala-Phe-DPro]] | 23 % of maximal NDP-MSH response at 100 μM | > 100 µM | > 100 µM | > 100 | > 100 | > 100 | 6.7 | > 100 | 22 |
| cyclo(PRFF[Dap]VF[dP]) [c[Pro-Arg-Phe-Phe-Dap-Val-Phe-DPro]] | 79 % of maximal NDP-MSH response at 100 μM | 27 % of maximal NDP-MSH response at 100 μM | 37 % of maximal NDP-MSH response at 100 μM | > 100 | 8 | 10 | – | 2.7 | 0.0322 |
| cyclo(PRYF[Dap]AF[dP]) [c[Pro-Arg-Tyr-Phe-Dap-Ala-Phe-DPro]] | 48 % of maximal NDP-MSH response at 100 μM | > 100 µM | > 100 µM | > 100 | 18 | 28 | 0.134 | 36 | 1.02 |
| cyclo(PHFF[Dap]AF[dP]) [c[Pro-His-Phe-Phe-Dap-Ala-Phe-DPro]] | 56 % of maximal NDP-MSH response at 100 μM | > 100 µM | > 100 µM | > 100 | 25 | 15 | 1 | 12 | 2.7 |
| PRFFXAFP (Dap (diaminopropionic acid) at position 5 (X in the letters); DPro at position 8; head-to-tail cyclised (macrocycle)) [c[Pro-Arg-Phe-Phe-Dap-Ala-Phe-DPro]] | – | – | – | – | 5.2 | 3.2 | – | 1.7 | – |
